Measured values taken from IntAct's records for PubMed 16717101.

B1: Regulatory protein SIR4 (Saccharomyces cerevisiae), P11978 (parent)
chain: MPNDNKTPNRSSTPKFTKKPVTPNDKIPEREEKSNEVKTPKIPLFTFAKSKNYSRPSTAIHTSPHQPSDVKPTSHKQLQQPKSSPLKKNNYNSFPHSNLEKISNSKLLSLLRSKTSAGRIESNNPSHDASRSLASFEQTAFSRHAQQQTSTFNSKPVRTIVPISTSQTNNSFLSGVKSLLSEEKIRDYSKEILGINLANEQPVLEKPLKKGSADIGASVISLTKDKSIRKDTVEEKKEEKLNIGKNFAHSDSLSVPKVSAGDSGISPEESKARSPGIAKPNAIQTEVYGINEESTNERLEINQEKPVKLDENSANSTVASALDTNGTSATTETLTSKKIVPSPKKVAIDQDKITLHDEKTLAPSKHQPITSEQKMKEDADLKRMEILKSPHLSKSPADRPQGRRNSRNFSTRDEETTKLAFLVEYEGQENNYNSTSRSTEKKNDMNTSAKNKNGENKKIGKRPPEIMSTEAHVNKVTEETTKQIQSVRIDGRKVLQKVQGESHIDSRNNTLNVTPSKRPQLGEIPNPMKKHKPNEGRTPNISNGTINIQKKLEPKEIVRDILHTKESSNEAKKTIQNPLNKSQNTALPSTHKVTQKKDIKIGTNDLFQVESAPKISSEIDRENVKSKDEPVSKAVESKSLLNLFSNVLKAPFIKSESKPFSSDALSKEKANFLETIASTEKPENKTDKVSLSQPVSASKHEYSDNFPVSLSQPSKKSFANHTEDEQIEKKKICRGRMNTIITHPGKMELVYVSDSDDSSSDNDSLTDLESLSSGESNEIKVTNDLDTSAEKDQIQAGKWFDPVLDWRKSDRELTKNILWRIADKTTYDKETITDLIEQGIPKHSYLSGNPLTSVTNDICSVENYETSSAFFYQQVHKKDRLQYLPLYAVSTFENTNNTEKNDVTNKNINIGKHSQEQNSSSAKPSQIPTVSSPLGFEETKLSTTPTKSNRRVSHSDTNSSKPKNTKENLSKSSWRQEWLANLKLISVSLVDEFPSELSDSDRQIINEKMQLLKDIFANNLKSAISNNFRESDIIILKGEIEDYPMSSEIKIYYNELQNKPDAKKARFWSFMKTQRFVSNMGFDIQKSCEPVSISTSVKPHVVEPEHMADAKIMPKDILQITKKPLMVKNVKPSSPPDVKSLVQLSTMETKTLPEKKQFDSIFNSNKAKIIPGNGKHASENISLSFSRPASYGYFSVGKRVPIVEDRRVKQLDDITDSNTTEILTSVDVLGTHSQTGTQQSNMYTSTQKTELEIDNKDSVTECSKDMKEDGLSFVDIVLSKAASALDEKEKQLAVANEIIRSLSDEVMRNEIRITSLQGDLTFTKKCLENARSQISEKDAKINKLMEKDFQVNKEIKPY

Variants of: B1
Settings: with sir3_yeast SIR3, P06701
sir3_yeast SIR3, P06701, sequence (P06701 whole entry): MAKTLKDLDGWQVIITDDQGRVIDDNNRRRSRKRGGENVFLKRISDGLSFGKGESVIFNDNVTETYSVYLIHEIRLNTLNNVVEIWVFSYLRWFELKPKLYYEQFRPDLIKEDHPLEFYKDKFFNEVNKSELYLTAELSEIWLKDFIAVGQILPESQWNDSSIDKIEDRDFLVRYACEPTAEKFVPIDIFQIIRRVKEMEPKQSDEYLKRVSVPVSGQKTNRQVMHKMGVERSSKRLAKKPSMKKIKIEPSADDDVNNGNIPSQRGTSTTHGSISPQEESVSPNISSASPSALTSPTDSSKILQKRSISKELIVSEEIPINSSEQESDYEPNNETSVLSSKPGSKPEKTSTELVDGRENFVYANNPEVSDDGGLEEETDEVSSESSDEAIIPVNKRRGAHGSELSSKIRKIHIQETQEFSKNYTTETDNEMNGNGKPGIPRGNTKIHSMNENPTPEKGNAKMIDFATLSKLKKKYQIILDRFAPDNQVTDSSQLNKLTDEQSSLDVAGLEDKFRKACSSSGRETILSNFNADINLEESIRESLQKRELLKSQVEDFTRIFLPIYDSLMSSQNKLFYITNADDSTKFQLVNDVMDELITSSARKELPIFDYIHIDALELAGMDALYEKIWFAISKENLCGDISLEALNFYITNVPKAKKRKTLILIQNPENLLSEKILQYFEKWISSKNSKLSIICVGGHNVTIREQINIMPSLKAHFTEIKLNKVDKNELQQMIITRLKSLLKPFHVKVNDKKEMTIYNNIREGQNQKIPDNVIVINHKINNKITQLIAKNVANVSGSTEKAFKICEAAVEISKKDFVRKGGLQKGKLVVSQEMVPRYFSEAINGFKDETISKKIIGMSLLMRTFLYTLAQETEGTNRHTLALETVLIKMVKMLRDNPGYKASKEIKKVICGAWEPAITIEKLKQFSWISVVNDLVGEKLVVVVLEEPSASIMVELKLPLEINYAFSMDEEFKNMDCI

| effect of a mutation on the interaction | Variant |
| --- | --- |
| decreasing interaction | M1307N |
